Assay results from patent publication US20060270591A1, “Androgen receptor coregulators” (priority 2002, published 2006).

Columns and labels:
[1] = target: T1, AR N-terminus and AR C-terminus (Homo sapiens, UniProt P10275); assay: Mammalian two-hybrid assay of AR N-C interaction in PC-3 cells; assay type: cell-based; settings: DHT
T1 construct: AR DBD plus LBD (GST-AR-DL); expressed in transfected cells; host or cells: PC-3 cells (human prostate cancer line)
T1 sequence (P10275 555-920 limits assumed): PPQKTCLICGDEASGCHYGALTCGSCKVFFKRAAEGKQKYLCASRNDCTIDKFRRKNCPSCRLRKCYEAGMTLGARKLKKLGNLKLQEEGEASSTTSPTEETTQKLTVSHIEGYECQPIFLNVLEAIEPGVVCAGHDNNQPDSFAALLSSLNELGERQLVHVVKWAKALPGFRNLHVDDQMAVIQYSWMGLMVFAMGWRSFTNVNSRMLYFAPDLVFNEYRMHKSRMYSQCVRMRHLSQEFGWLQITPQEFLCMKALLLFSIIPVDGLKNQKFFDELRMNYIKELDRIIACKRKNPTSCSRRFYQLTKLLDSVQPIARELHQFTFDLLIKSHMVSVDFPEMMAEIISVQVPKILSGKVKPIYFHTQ
T1 sequence (P10275 1-559 partner limits assumed): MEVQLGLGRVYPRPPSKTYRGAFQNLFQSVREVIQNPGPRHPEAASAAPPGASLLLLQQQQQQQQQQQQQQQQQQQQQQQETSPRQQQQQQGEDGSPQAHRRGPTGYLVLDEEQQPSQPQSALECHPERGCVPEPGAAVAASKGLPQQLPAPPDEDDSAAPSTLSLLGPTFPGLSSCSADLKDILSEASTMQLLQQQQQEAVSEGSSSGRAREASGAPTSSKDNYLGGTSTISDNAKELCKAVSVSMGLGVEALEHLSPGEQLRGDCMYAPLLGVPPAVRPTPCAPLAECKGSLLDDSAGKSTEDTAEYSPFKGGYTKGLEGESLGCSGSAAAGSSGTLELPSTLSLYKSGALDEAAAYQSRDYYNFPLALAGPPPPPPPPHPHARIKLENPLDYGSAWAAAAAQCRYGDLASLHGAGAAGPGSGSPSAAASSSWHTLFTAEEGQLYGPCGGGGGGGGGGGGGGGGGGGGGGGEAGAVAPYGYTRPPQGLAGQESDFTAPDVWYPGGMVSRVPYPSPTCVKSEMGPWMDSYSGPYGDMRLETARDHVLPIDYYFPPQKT
Experimental: 44. […] PC-3 cells were transfected with 30 ng plasmids expressing Gal4(DBD)-AR-DL, VP16 or VP16-ARN combined with 1.5 μg pSG5, pSG5-bSV, -ARA55, or -SRC-1α as indicated. The reporter plasmid pG5-Luc (0.5 μg) and control plasmid pRL-Luc (1 ng) were transfected to every sample. The assay was carried out as described in FIG. 29C.
474. Mouse myoblast cell line (C2C12), human prostate cancer cell lines (PC-3 and DU145), and monkey kidney fibroblast cell line (COS-1) were maintained in Dulbecco's minimum essential medium (DMEM) containing penicillin (25 units/ml), streptomycin ([…]), and 10% fetal bovine serum (FBS). In mammalian two-hybrid assay, transfections were performed using the calcium phosphate precipitation method as described previously (15). Briefly, 1.5-3×10^5 cells were plated on 35-mm dishes for 24 h, and the medium was changed to DMEM containing 10% charcol-dextran stripped FBS (CD-FBS) 2 h before transfection. Cells were transfected with 0.5 μg plasmids expressing Gal4(DBD) and VP-16 fusion proteins as indicated. Gal4 response element controlled Firefly luciferase expression plasmid, pG5-Luc, was used as reporter gene. A Renilla luciferase expression plasmid pRL-SV40 was used as an internal control for transfection efficiency. The total amount of DNA was adjusted to 5 μg with pCMX-VP16 vectors. […]

[2] = target: T2, ER-α (Homo sapiens, UniProt P03372); assay: ER-α transactivation reporter assay (ERE-Luc) with SV; assay type: cell-based
T2 sequence (P03372 1-595): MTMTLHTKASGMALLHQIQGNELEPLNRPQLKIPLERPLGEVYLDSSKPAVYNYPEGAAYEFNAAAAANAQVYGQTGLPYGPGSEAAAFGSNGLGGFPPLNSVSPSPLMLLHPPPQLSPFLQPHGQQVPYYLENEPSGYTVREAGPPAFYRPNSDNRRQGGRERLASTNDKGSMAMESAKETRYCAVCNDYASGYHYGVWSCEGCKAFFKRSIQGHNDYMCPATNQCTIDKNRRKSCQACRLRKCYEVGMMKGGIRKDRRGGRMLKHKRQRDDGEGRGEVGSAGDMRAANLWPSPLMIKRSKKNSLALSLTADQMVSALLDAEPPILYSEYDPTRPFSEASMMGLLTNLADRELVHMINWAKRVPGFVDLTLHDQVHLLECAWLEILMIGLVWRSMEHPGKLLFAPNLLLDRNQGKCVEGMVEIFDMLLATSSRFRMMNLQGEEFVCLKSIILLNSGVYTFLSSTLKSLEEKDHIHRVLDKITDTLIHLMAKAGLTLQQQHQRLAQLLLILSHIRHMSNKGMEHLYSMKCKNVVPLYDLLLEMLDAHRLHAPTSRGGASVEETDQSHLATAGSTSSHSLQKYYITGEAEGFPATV
Experimental: 42. […] (A) The interaction of SV with AR, GR, PPAR-γ and ER-α is tested in mammalian two-hybrid assay. One μg plasmids expressing Gal4(DBD)-AR, GR, PPAR-γ or ER-α was co-transfected with 4 μg plasmids expressing VP16 or VP16-SVn to COS-1 cells. […] The assay method was the same as described in FIG. 29. Relative activities of ligand treatment to EtOH treatment are shown. (B) The coactivation function of SV in different receptors was assayed using reporter gene study. MMTV-Luc, PPRE-Luc, ERE-Luc are the reporter genes for AR, GR, PPAR-γ, and ER-α respectively. Lanes 1, 5, 9 and 13 are regarded as 1 fold in each panel.
475. In AR transactivation activity assays, transfections were performed using SuperFect (Qiagen, Chatsworth, Calif.) following protocols described in manual provided by Qiagen. Briefly, cells were plated on 35 mm dishes and after 24 h were transfected using the SuperFect kit. The total DNA amount was adjusted to 2 μg with pSG5 or pEGFP vectors. The medium was changed to DMEM with 10% CD-FBS 2 h after transfection. After 24 h, the DMEM with 10% CD-FBS was changed again, and the cells were treated with various steroids. Cells were harvested after 24 h for dual-luciferase assay as described in protocol provided by Promega. At least three independent experiments were carried out in each case.

In the case of “SV: supervillin, 205 kDa actin binding protein; bovine SV (a.a. 1-1792) used in reporter assays”, the “effect on AR N-C interaction” value [1] was “mild suppressive effect” and the “effect on the transactivation of ER-α” value [2] was “little effect”.
